T1: human GFRα4 isoform a (GFRα4a) on transduced cells (human, UniProt Q9GZZ7-2 21-248)
T1 construct: whole, on cells; also called Nalm6 cells expressing the GFRα4 isoform a
T1 sequence (looked up): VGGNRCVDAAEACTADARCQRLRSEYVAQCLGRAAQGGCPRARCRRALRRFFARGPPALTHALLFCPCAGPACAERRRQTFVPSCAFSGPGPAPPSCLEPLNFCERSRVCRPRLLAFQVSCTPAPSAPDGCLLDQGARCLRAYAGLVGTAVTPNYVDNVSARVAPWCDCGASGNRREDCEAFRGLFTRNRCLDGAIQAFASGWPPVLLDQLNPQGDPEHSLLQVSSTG

B1: CD19-Fc (Fc fusion, UniProt P15391 20-291, looked up)
chain: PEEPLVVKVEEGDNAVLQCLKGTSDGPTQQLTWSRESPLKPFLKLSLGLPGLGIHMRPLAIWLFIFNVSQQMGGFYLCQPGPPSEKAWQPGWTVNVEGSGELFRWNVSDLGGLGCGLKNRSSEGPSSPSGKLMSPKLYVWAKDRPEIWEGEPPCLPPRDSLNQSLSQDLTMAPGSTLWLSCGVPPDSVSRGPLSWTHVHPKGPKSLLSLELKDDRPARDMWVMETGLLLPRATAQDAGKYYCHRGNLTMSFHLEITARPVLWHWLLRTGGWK
notes: The words recombinant human Fc-fusions leave open whether human means the Fc or the antigen; also called recombinant human Fc-fusion of CD19 antigen; Fc-conjugated soluble CD19; not shown: human Fc
B2: CAR P4-10, the original rabbit GFRα4-directed CAR (other)
VH: QSVKESEGGLFKPTDTLTLTCTVSGFSLSRHALTWVRQAPGNGLEWIGAIDNAGTTYYASWAKSRSTITRNTDLHTVTLKMTSLTASDTATYFCARVFYDINSGYYLDGMDLWGPGTLVTVSS
VL: QFVLTQSPSVSAALGASAKLTCTLSSAHKTYTIDWYQQQQGEAPRYLMQVKSDGSYTKGTGVPDRFSGSSSGADRYLIIPSVQADDEAGYVCGADDNGGYVFGGGTQLTVT
notes: Chimeric antigen receptor on transduced human T cells, one chain in fact; also called P410bbz; P4-10 CAR
B3: P4-10 antibody (full-length rabbit IgG containing the P4-10 rabbit variable regions) (antibody, V domains shown)
VH: B2 VH
VL: B2 VL
notes: Full-length rabbit IgG, lambda light chain; also called anti-GFRα4 P4-10 antibody; rabbit P4-10

Assays:
CAR-10 = molecular target: T2, CAR-10 (human, UniProt P01732 183-206; Q07011 214-255; P20963 52-163); experiment: flow cytometry of CAR T cells stained with Fc-fusion antigen and anti-human Fc-specific antibodies
T2 construct: domain: transmembrane domain;domain: 4-1BB domain;domain: CD3zeta domain; Chimeric antigen receptor on transduced human T cells; also called CAR10bbz; pTRPE-C10-gs-BBz
T2 sequence (P01732 other isoform, or with tags, fused parts or gaps limits assumed): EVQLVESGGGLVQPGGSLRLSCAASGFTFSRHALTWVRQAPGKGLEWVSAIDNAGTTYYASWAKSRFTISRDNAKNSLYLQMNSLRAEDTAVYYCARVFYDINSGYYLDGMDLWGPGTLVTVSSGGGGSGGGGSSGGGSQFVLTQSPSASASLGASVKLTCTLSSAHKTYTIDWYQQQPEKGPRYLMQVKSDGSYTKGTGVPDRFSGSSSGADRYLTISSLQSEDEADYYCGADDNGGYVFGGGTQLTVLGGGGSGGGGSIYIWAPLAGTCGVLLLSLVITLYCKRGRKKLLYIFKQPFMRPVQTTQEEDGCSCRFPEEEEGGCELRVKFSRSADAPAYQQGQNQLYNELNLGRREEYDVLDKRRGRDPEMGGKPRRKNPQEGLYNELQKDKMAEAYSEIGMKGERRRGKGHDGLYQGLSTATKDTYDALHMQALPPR
Experimental: (§1) To create CAR-T expressing cells, human T cells from healthy donors were activated with anti-CD3 and anti-CD28 coated paramagnetic beads (DYNABEADS® Human T-Activator CD3/CD28, Life Technologies). One day following activation, cells were transduced with lentiviral vectors encoding GFRα4-directed CARs (original rabbit P4-10 and humanized versions), a CD19-directed control CAR (FMC63(cd8)bbz), or were left non-transduced (NTD). Cells were expanded and on day 7, cells were evaluated for cell-surface expression of the CARs by flow cytometry (FACSCalibur, BD Biosciences, Franklin Lakes, N.J.). Fluorescently-labeled goat anti-rabbit antibodies detected CAR P4-10, the original rabbit GFRα4-directed CAR, and fluorescently-labeled Protein L detected the murine CD19-directed CAR (FIG. 19A, “P410” and “19bbz”, respectively). Fluorescently-labeled rabbit anti-human antibodies (“RaH”) detected CARs 10, 14, 25, and 29 (FIG. 19B). Expression of cell-surface CARs were also detected by staining with antigen using recombinant human Fc-fusions of GFRα4 or CD19 antigen followed by detection of bound antigen with fluorescently-labeled anti-human Fc-specific antibodies (FIG. 19C). Appropriately, CD19-Fc only bound to CD19-directed CARs while GFRα4-Fc bound to both rabbit P4-10 and humanized P4-10 CARs but not the CD19-directed CAR.

CAR-14 = molecular target: T3, CAR-14 (human, UniProt P01732 183-206; Q07011 214-255; P20963 52-163); experiment: as above
T3 construct: domain: transmembrane domain;domain: 4-1BB domain;domain: CD3zeta domain; Chimeric antigen receptor on transduced human T cells; also called pTRPE-C14-gs-BBz
T3 sequence (P01732 other isoform, or with tags, fused parts or gaps limits assumed): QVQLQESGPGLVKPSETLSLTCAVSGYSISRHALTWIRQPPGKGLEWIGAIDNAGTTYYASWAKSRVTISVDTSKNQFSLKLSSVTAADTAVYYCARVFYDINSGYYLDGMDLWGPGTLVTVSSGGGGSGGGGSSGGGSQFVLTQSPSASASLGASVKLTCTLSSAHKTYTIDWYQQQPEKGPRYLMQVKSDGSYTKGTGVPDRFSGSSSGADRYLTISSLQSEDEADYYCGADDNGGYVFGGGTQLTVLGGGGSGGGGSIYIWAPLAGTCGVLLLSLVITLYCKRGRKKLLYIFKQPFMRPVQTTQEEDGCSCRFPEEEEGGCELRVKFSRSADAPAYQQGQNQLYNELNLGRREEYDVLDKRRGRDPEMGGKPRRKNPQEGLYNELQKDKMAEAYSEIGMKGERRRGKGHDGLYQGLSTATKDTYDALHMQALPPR
Experimental: as §1

CAR-25 = molecular target: T4, CAR-25 (human, UniProt P01732 183-206; Q07011 214-255; P20963 52-163); experiment: as above
T4 construct: domain: transmembrane domain;domain: 4-1BB domain;domain: CD3zeta domain; Chimeric antigen receptor on transduced human T cells; also called pTRPE-C25-gs-BBz
T4 sequence (P01732 other isoform, or with tags, fused parts or gaps limits assumed): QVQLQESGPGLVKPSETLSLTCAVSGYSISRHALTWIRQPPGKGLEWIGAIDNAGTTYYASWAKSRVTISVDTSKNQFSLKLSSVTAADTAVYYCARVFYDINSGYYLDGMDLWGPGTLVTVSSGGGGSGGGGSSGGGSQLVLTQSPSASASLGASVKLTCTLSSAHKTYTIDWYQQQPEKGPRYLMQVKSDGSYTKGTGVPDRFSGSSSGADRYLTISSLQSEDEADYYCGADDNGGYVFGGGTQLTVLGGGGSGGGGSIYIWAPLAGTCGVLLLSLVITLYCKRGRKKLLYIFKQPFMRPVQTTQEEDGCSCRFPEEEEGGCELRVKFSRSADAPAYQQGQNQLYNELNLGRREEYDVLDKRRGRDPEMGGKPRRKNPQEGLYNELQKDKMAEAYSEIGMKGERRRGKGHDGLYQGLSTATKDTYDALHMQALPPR
Experimental: as §1

CAR-29 = molecular target: T5, CAR-29 (human, UniProt P01732 183-206; Q07011 214-255; P20963 52-163); experiment: as above
T5 construct: domain: transmembrane domain;domain: 4-1BB domain;domain: CD3zeta domain; Chimeric antigen receptor on transduced human T cells; also called pTRPE-C29-gs-BBz
T5 sequence (P01732 other isoform, or with tags, fused parts or gaps limits assumed): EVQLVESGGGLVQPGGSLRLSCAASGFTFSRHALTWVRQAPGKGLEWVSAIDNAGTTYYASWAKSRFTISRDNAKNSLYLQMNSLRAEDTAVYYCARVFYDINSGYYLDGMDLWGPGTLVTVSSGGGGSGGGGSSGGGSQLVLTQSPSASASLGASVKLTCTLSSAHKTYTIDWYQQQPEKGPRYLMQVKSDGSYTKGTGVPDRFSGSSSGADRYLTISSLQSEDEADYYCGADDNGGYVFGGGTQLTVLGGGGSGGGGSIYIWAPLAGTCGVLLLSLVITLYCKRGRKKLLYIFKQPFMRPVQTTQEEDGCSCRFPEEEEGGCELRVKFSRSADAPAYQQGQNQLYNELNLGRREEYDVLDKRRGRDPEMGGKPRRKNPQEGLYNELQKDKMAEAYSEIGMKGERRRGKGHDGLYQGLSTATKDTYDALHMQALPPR
Experimental: as §1

CD19-Fc = molecular target: B1; experiment: as above
Experimental: as §1

[1] = molecular target: T6, GFRα4 isoform b (GFRα4b), Fc fusion (human); experiment: flow cytometry of CAR T cells stained with Fc-fusion antigen and anti-human Fc-specific antibodies (FIG. 19C)
T6 construct: the entry holds the whole fusion; also called GFR4α4b; GFRα4-Fc
Experimental: as §1

[2] = molecular target: T1, human GFRα4 isoform a (GFRα4a) on …; experiment: flow cytometry and sorting of Nalm6 cells transduced with human GFRα4a-T2A-GFP
Experimental: Cytotoxicity of target cells by GFRα4-directed CAR-T cells was evaluated using a 51Cr release-assay. Target cells comprised either Nalm6 cells (a CD19-expressing B-cell precursor leukemia cell line (ATCC® CRL-3273TM)), Nalm6 cells expressing the GFRα4 isoform a (GFRα4a) or isoform b (GFRα4b), or TT cells (a human medullary thyroid cancer cell line (ATCC® CRL-1803TM)). Nalm6 cells expressing GFRα4 proteins were produced by transduction with lentiviral vectors encoding human GFRα4a-T2A-GFP or human GFRα4b-T2A-GFP (Milone et al. (2009) Molecular Therapy., 17: 1453-1464). […] P4-10 antibody comprised a full-length rabbit IgG containing the P4-10 rabbit variable regions and was a gift of Novartis Pharmaceuticals.

Binder: B1
binding result (CAR-10): no binding | binding result (CAR-14): no binding | binding result (CAR-25): no binding | binding result (CAR-29): no binding

Binder: B2
binding result (CD19-Fc): no binding | binding result [1]: binds

Binder: B3
binding result [2]: binds
